Experimental data as given in PMC7350312.

Target: HIV-1 CRF07_BC gp120 recombinant protein (HIV-1 CRF07_BC)
Test: SPR; format not shown (protocol in the supplement)

**Q.** Which Kd does the source give for “recombinant human galectin-3 (from UniProt P17931 1-250)” here?
**A.** 7 nM
